Experimental data reported in patent publication US20180237480A1 (UNIVERSITY OF EDINBURGH, published 2018).

B1: SpsO of S. pseudintermedius ED99, full-length, expressed on L. lactis MG1363 (pOri23) (other)
chain: SVKEGQQSINSSEKESADPTVVDLISKKETNLDGLDVSREETTKVPINENKRGEEQSISDKAITEKADTPVSNLSSKEVEEQGVSDKAITEKADTPVTNLSSKEAKEQGASDRVITEKADTPVSNLSSKEAKEQGASDRVITEKADTPVSNLSSKEVEEQGVSDKAIEKIADASATDLSSKEEVEQDISTQGKVKSKEAVQVESSQLQNLNSEINAEPNEIKAIDRSSILPLNLNDEENNKKVNKGTRVPEATLRNASNNQLNTRMRSVSLFRVARLTEINRNVNDKVKVSDIDIAIAPPHTNPKTGKEEFWATSSSVLKLKASYELDNSISKGDQFTIQFGQNIRPGGLNLPRPYNFLYDKDKKLVATGRYNKESNTITYTFTDYVDKHQNIKGSFEMNAFSRKENATTDKTAYPMDVTIANQKYSENIIVDYGNKKNAAIISSTEYIDLDGSRKMTTYINQNGSKNSIYRADMQIDLNGYKFDPSKNNFKIYEVENSSDFVDSFSPDVSKLRDVTSQFNIQYTNNNTMAKVDFGTNLWRGKKYIIQQVANIDDSKLVKNASINYTLNKMDFNNKRTVETHNNTYSTVKDKSTALGDVQESQSISESQSVSESESLSESQSISESESLSESQSISESESLSESQSISESESLSESQSISESESLSESQSISESESLSESQSISESESLSESQSISESESLSESQSISESESLSESQSISESESLSESQSISESESLSESQSISESESLSESQSISESESLSESQSISESESLSESQSISESESLSESQSISESESLSESQSISESESLSESQSISESESLSESQSISESESLSESQSISESESLSESQSISESESLSESQSISESESLSESQSISESESLSESQSISESESLSESQSISESESLSESQSISESESLSESQSISESESLSESQSISESESLSESQSISESESLSESQSISESESLSESQSVSESESLSESQSISESESLSESQSISESESLSESQSISESESLSESQSISESESLSESQSISESESLSESQSISESESLSESQSISESESLSESQSISESESLSESQSISESESLSESQSISESESLSESQSISESESLSESQSISESESLSESQSISESESLSESQSISESESLSESQSVSESESLSESQSISESESLSESQSISESESLSESQSISESESLSESQSISESESLSESQSISESESLSESQSISESESLSESQSISESESLSESQSVSESESLSESQSISESESLSESQSISESESLSESQSISESESLSESQSISESESLSESQSISESESLSESQSISESESLSESQSISESESLSESQSISESESLSESQSISESESLSESQSISESESLSESQSISESESLSESQSISESESLSESQSISESESLSESQSISESESLSESQSISESESLSESQSISESESLSESQSISESESLSESQSISESESLSESQSISESESLSESQSISERESLSESQSISESESLSESQSISESESLSESQSISESESLSESQSISESESLSESQSISESESLSESQSISESESLSESQSISESESLSESQSISESESLSESQSISESESLSESQSISESESLSESQSVSESESLSESQSISESESLSESQSISESESLSESQSISESESLSESQSISESESLSESQSISESESLSESQSISESESLSESQSISESESLSESQSISESESLSESQSISESESLSESQSISESESLSESQSISESESKSLPNTGTGEKISNYPGILGGLLSILGISLLKRKDREKKLGQKSNK
notes: also called L. lactis expressing SpsO; putative MSCRAMM SpsO
B2: SpsL of S. pseudintermedius ED99, full-length, expressed on L. lactis MG1363 (pOri23) (other)
chain: NEDVTETTGRNSVTTQASEQHLQVEAVPQEGNNVNVSSVKVPTNTATQAQEDVASVSDVKAHADDALQVQESSHTDGVSSEFKQETAYANPQTAETVKPNSEAVHQSEYEDKQKPVSSSRKEDETMLQQQQVEAKNVVSAEEVSKEENTQVMQSPQDVEQHVGGKDISNEVVVDRSDIKGFNSETTIRPHQGQGGRLNYQLKFPSNVKPGDQFTIKLSDNINTHGVSVERTAPRIMAKNTEGATDVIAEGLVLEDGKTIVYTFKDYVNGKQNLTAELSVSYFVSPEKVLTTGTQTFTTMIGNHSTQSNIDVYYDNSHYVDGRISQVNKKEAKFQQIAYINPNGYLNGRGTIAVNGEVVSGTTKDLMQPTVRVYQYKGQGVPPESITIDPNMWEEISINDTMVRKYDGGYSLNLDTSKNQKYAIYYEGAYDAQADTLLYRTYIQSLNSYYPFSYQKMNGVKFYENSASGSGELKPKPPEQPKPEPEIQADVVDIIEDSHVIDIGWNTAVGEESGANQGPQEEITENHDIEVIEENNLVEMTEDTAVGEESGANQGPQEEITENHDIEVIEENNLVEMTEDTALEEESGANQGPQEEITENHDIEVIEENNLVEMTEDTALEEESGANQGPQEEITENHDIEVIEENNLVEMTEDTAVGEESGANQGPQEEITENHDIEVIEENNLVEMTEDTAVGEESGANQGPQEEITENHDIEVIEENNLVEMTEDTALEEESGANQGPQEEITENHNIEVIEENNLVEMTEDTAVGEESGANPGPQEEVTENQPQQEEIMENQEVEKKGDSNLVESTKTPKAEESVSVQPTLEDKNTKNHVNTVVVNTKVSEVKEKDPHHTKALPDTGTTSRSHSMMIPLLLVAGSVVLLRRKKKHSKVN
notes: also called L. lactis expressing SpsL; putative MSCRAMM SpsL

How the values were obtained:
Assay in all cases: solid phase adherence assay, L. lactis on coated plates, absorbance 590 nm
[1] = target: T1, recombinant mouse cytokeratin 10 (mouse, UniProt P02535 454-570)
T1 construct: also called CK10; recombinant CK10
T1 sequence: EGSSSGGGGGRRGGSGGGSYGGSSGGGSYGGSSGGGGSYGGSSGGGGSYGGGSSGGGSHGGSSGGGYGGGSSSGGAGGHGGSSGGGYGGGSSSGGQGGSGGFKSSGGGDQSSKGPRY

[2] = target: T2, bovine fibrinogen (bovine, UniProt P02672 20-615; P02676 1-468; P12799 25-444)
T2 construct: The three chains are general knowledge about fibrinogen; also called bovine Fg
T2 sequence 1: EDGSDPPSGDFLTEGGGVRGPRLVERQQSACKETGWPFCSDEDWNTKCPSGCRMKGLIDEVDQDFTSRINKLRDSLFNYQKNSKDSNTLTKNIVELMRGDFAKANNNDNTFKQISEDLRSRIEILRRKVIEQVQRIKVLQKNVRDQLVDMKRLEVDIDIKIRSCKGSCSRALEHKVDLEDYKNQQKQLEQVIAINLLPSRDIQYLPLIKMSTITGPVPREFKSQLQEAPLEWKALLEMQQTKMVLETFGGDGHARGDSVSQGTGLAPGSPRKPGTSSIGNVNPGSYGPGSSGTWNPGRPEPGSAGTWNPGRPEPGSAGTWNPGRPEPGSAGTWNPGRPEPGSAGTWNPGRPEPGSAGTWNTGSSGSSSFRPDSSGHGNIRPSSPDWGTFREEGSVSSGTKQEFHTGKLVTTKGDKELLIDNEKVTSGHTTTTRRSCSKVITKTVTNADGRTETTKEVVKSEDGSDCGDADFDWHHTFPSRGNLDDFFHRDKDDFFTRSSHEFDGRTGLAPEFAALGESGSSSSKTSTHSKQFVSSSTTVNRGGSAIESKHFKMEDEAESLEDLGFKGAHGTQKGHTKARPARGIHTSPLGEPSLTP
T2 sequence 2: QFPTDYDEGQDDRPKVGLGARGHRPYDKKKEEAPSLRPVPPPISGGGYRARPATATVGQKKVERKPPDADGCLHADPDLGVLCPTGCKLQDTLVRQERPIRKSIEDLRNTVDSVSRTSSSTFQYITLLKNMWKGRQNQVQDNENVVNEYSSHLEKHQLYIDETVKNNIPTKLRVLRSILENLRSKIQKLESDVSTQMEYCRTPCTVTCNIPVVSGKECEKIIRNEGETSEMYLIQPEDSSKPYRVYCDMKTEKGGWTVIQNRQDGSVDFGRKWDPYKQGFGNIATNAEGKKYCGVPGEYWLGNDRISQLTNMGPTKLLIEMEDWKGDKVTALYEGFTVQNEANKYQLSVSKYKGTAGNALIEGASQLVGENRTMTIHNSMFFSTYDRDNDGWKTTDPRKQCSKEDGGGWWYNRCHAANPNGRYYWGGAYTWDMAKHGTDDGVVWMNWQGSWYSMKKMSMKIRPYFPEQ
T2 sequence 3: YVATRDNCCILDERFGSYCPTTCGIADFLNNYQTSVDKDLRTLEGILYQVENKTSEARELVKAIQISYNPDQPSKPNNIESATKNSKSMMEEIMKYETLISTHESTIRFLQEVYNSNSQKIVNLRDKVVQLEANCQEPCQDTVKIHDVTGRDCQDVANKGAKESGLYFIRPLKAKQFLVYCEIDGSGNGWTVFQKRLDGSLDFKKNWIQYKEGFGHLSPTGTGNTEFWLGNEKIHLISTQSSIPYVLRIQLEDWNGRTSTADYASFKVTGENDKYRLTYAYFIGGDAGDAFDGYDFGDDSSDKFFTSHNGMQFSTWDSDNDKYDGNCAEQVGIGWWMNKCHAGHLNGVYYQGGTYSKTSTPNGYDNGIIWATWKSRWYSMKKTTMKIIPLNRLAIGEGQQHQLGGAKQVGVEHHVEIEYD

[3] = target: T3, human fibrinogen (human, UniProt P02671 20-629; P02675 31-491; P02679 27-437)
T3 construct: The three chains are general knowledge about fibrinogen; also called human Fg
T3 sequence 1: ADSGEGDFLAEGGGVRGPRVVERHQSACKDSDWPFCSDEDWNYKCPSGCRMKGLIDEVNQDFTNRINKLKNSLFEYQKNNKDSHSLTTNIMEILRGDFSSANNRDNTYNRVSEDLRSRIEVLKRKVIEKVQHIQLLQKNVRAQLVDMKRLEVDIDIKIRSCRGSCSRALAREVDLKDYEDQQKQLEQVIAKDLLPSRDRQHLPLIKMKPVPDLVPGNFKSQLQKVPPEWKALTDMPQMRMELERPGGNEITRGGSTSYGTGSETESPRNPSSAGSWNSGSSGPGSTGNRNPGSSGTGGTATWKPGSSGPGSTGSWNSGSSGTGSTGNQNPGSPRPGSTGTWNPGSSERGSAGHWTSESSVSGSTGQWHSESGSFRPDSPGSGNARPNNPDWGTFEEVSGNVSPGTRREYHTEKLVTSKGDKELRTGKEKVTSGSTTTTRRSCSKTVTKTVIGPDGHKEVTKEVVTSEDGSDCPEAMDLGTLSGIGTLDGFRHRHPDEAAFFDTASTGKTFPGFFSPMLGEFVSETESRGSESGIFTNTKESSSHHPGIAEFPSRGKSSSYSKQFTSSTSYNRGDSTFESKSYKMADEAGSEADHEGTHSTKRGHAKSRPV
T3 sequence 2: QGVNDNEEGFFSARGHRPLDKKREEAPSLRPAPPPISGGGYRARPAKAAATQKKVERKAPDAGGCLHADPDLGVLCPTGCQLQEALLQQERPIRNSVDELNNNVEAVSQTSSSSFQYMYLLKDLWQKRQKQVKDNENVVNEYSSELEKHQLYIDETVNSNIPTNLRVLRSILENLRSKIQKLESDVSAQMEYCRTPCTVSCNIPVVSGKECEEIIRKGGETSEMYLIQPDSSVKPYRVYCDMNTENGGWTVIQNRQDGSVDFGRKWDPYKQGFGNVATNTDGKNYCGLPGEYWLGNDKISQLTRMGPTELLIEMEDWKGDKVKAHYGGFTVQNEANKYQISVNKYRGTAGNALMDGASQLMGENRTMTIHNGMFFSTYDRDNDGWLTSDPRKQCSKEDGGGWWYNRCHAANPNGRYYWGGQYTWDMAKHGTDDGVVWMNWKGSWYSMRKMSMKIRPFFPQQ
T3 sequence 3: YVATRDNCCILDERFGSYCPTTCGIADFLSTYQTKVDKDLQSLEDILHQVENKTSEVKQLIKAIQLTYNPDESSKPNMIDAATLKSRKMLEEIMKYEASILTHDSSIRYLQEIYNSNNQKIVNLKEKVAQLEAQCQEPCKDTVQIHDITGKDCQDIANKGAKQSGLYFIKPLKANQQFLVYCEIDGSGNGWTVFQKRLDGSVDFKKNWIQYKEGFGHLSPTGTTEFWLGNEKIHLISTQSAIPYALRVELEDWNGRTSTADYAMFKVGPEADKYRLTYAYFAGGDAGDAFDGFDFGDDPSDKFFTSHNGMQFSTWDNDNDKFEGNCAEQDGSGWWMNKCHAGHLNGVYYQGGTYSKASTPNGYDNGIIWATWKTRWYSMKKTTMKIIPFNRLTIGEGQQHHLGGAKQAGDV

Binder	binding result [1]	binding result [2]	binding result [3]
B1	no binding (tested: 1 µg CK10 coated per well)	no binding (tested: 1 µg Fg coated per well)	no binding (tested: 1 µg Fg coated per well)
B2	no binding (tested: 1 µg CK10 coated per well)	no binding (tested: 1 µg Fg coated per well)	no binding (tested: 1 µg Fg coated per well)
